# ± gives the standard deviation of the averaged measurements.
# B1: library; a variant is named by its letters at N, in order (parent)
# chain: GCUGUCACCGAGAAACUGUGAAGUAUAUCUUAAACCUGGGCACUUAAAAGAUAUAUGGAGUUAGUAGUGCAACCUGCUCGGUCUGAUGAGUCCNNNNNNGGACGAAACAGC
# Experiments:
# cyclic di-GMP [1] = variants of: B1; assay: normalized RNA/DNA level without ligand (relative to sTRSVctl = 100) (log10 (% of sTRSVctl)); HEK293T; ligand: cyclic di-GMP (c-di-GMP-II aptamer); higher = less ribozyme self-cleavage, higher mRNA level; settings: reporter: mCherry (pCS4076), ligand present: no
# Summary of the method: (§1)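 Ribozyme switch library plasmids linked to reporters were introduced into HEK293T cells at 4 µg per 6-well well, with ligand, if any, added 1 h before. Total RNA was extracted with EDTA 72 h later, reverse-transcribed, amplified, barcoded and sequenced. RNA level was computed from RNA over DNA reads relative to a spiked-in non-cleaving sequence or the top sequences, then scaled and log-transformed. The top set was 25 sequences, values were ×100 and log10, and the cutoff was ≥100 DNA reads.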
# cyclic di-GMP [2] = variants of: B1; assay: normalized RNA/DNA level with ligand (relative to sTRSVctl = 100) (log10 (% of sTRSVctl)); HEK293T; ligand: cyclic di-GMP (c-di-GMP-II aptamer); ligand concentration (+) RNA-Seq: 1 mM; higher = less ribozyme self-cleavage, higher mRNA level; settings: reporter: mCherry (pCS4076), ligand present: yes
# Summary of the method: as §1
Variant,normalized RNA/DNA level without ligand (log10) (cyclic di-GMP [1]),normalized RNA/DNA level with ligand (log10) (cyclic di-GMP [2])
GCUGUCACCGAGAAACUGUGAAGUAUAUCUUAAACCUGGGCACUUAAAAGAUAUAUGGAGUUAGUAGUGCAACCUGCUCGGUCUGAUGAGUCCAGAAUAGGACGAAACAGC [AGAAUA],1.43 ± 0.091,1.63 ± 0.098
GCUGUCACCGAGAAACUGUGAAGUAUAUCUUAAACCUGGGCACUUAAAAGAUAUAUGGAGUUAGUAGUGCAACCUGCUCGGUCUGAUGAGUCCUGAAUGGGACGAAACAGC [UGAAUG],1.72 ± 0.037,1.86 ± 0.12
GCUGUCACCGAGAAACUGUGAAGUAUAUCUUAAACCUGGGCACUUAAAAGAUAUAUGGAGUUAGUAGUGCAACCUGCUCGGUCUGAUGAGUCCUGAAUAGGACGAAACAGC [UGAAUA],1.677 ± 0.0075,1.82 ± 0.096
GCUGUCACCGAGAAACUGUGAAGUAUAUCUUAAACCUGGGCACUUAAAAGAUAUAUGGAGUUAGUAGUGCAACCUGCUCGGUCUGAUGAGUCCUGAAUUGGACGAAACAGC [UGAAUU],1.683 ± 0.0066,1.84 ± 0.13
GCUGUCACCGAGAAACUGUGAAGUAUAUCUUAAACCUGGGCACUUAAAAGAUAUAUGGAGUUAGUAGUGCAACCUGCUCGGUCUGAUGAGUCCCGAAGUGGACGAAACAGC [CGAAGU],1.676 ± 0.0054,1.84 ± 0.16
GCUGUCACCGAGAAACUGUGAAGUAUAUCUUAAACCUGGGCACUUAAAAGAUAUAUGGAGUUAGUAGUGCAACCUGCUCGGUCUGAUGAGUCCCGAAGCGGACGAAACAGC [CGAAGC],1.7 ± 0.06,1.81 ± 0.054
GCUGUCACCGAGAAACUGUGAAGUAUAUCUUAAACCUGGGCACUUAAAAGAUAUAUGGAGUUAGUAGUGCAACCUGCUCGGUCUGAUGAGUCCCGAAGGGGACGAAACAGC [CGAAGG],1.634 ± 0.0028,1.82 ± 0.097
GCUGUCACCGAGAAACUGUGAAGUAUAUCUUAAACCUGGGCACUUAAAAGAUAUAUGGAGUUAGUAGUGCAACCUGCUCGGUCUGAUGAGUCCGGACACGGACGAAACAGC [GGACAC],1.71 ± 0.053,1.84 ± 0.13
GCUGUCACCGAGAAACUGUGAAGUAUAUCUUAAACCUGGGCACUUAAAAGAUAUAUGGAGUUAGUAGUGCAACCUGCUCGGUCUGAUGAGUCCUGAACUGGACGAAACAGC [UGAACU],1.72 ± 0.052,1.86 ± 0.11
GCUGUCACCGAGAAACUGUGAAGUAUAUCUUAAACCUGGGCACUUAAAAGAUAUAUGGAGUUAGUAGUGCAACCUGCUCGGUCUGAUGAGUCCUGACACGGACGAAACAGC [UGACAC],1.7 ± 0.022,1.87 ± 0.086
GCUGUCACCGAGAAACUGUGAAGUAUAUCUUAAACCUGGGCACUUAAAAGAUAUAUGGAGUUAGUAGUGCAACCUGCUCGGUCUGAUGAGUCCUGACAGGGACGAAACAGC [UGACAG],1.712 ± 0.0029,1.82 ± 0.097
GCUGUCACCGAGAAACUGUGAAGUAUAUCUUAAACCUGGGCACUUAAAAGAUAUAUGGAGUUAGUAGUGCAACCUGCUCGGUCUGAUGAGUCCUGACAAGGACGAAACAGC [UGACAA],1.69 ± 0.018,1.8 ± 0.11
GCUGUCACCGAGAAACUGUGAAGUAUAUCUUAAACCUGGGCACUUAAAAGAUAUAUGGAGUUAGUAGUGCAACCUGCUCGGUCUGAUGAGUCCAGACAGGGACGAAACAGC [AGACAG],1.55 ± 0.049,1.75 ± 0.15
GCUGUCACCGAGAAACUGUGAAGUAUAUCUUAAACCUGGGCACUUAAAAGAUAUAUGGAGUUAGUAGUGCAACCUGCUCGGUCUGAUGAGUCCAGACACGGACGAAACAGC [AGACAC],1.68 ± 0.042,1.82 ± 0.1
GCUGUCACCGAGAAACUGUGAAGUAUAUCUUAAACCUGGGCACUUAAAAGAUAUAUGGAGUUAGUAGUGCAACCUGCUCGGUCUGAUGAGUCCCGACAGGGACGAAACAGC [CGACAG],1.8 ± 0.023,1.87 ± 0.091
GCUGUCACCGAGAAACUGUGAAGUAUAUCUUAAACCUGGGCACUUAAAAGAUAUAUGGAGUUAGUAGUGCAACCUGCUCGGUCUGAUGAGUCCCGACACGGACGAAACAGC [CGACAC],1.594 ± 0.0068,1.76 ± 0.11
GCUGUCACCGAGAAACUGUGAAGUAUAUCUUAAACCUGGGCACUUAAAAGAUAUAUGGAGUUAGUAGUGCAACCUGCUCGGUCUGAUGAGUCCCGACAUGGACGAAACAGC [CGACAU],1.43 ± 0.16,1.63 ± 0.12
GCUGUCACCGAGAAACUGUGAAGUAUAUCUUAAACCUGGGCACUUAAAAGAUAUAUGGAGUUAGUAGUGCAACCUGCUCGGUCUGAUGAGUCCUGAAGAGGACGAAACAGC [UGAAGA],1.62 ± 0.024,1.77 ± 0.13
GCUGUCACCGAGAAACUGUGAAGUAUAUCUUAAACCUGGGCACUUAAAAGAUAUAUGGAGUUAGUAGUGCAACCUGCUCGGUCUGAUGAGUCCUGAAGCGGACGAAACAGC [UGAAGC],1.679 ± 0.0046,1.83 ± 0.14
GCUGUCACCGAGAAACUGUGAAGUAUAUCUUAAACCUGGGCACUUAAAAGAUAUAUGGAGUUAGUAGUGCAACCUGCUCGGUCUGAUGAGUCCUGAAGGGGACGAAACAGC [UGAAGG],1.661 ± 0.00062,1.84 ± 0.08
GCUGUCACCGAGAAACUGUGAAGUAUAUCUUAAACCUGGGCACUUAAAAGAUAUAUGGAGUUAGUAGUGCAACCUGCUCGGUCUGAUGAGUCCGGAAUCGGACGAAACAGC [GGAAUC],1.55 ± 0.016,1.76 ± 0.09
GCUGUCACCGAGAAACUGUGAAGUAUAUCUUAAACCUGGGCACUUAAAAGAUAUAUGGAGUUAGUAGUGCAACCUGCUCGGUCUGAUGAGUCCGGAAGCGGACGAAACAGC [GGAAGC],1.634 ± 0.0082,1.76 ± 0.054
GCUGUCACCGAGAAACUGUGAAGUAUAUCUUAAACCUGGGCACUUAAAAGAUAUAUGGAGUUAGUAGUGCAACCUGCUCGGUCUGAUGAGUCCAGAAGCGGACGAAACAGC [AGAAGC],1.56 ± 0.13,1.74 ± 0.077
GCUGUCACCGAGAAACUGUGAAGUAUAUCUUAAACCUGGGCACUUAAAAGAUAUAUGGAGUUAGUAGUGCAACCUGCUCGGUCUGAUGAGUCCAGAAGUGGACGAAACAGC [AGAAGU],1.57 ± 0.022,1.75 ± 0.16
GCUGUCACCGAGAAACUGUGAAGUAUAUCUUAAACCUGGGCACUUAAAAGAUAUAUGGAGUUAGUAGUGCAACCUGCUCGGUCUGAUGAGUCCCGAAUCGGACGAAACAGC [CGAAUC],1.6 ± 0.043,1.78 ± 0.11
GCUGUCACCGAGAAACUGUGAAGUAUAUCUUAAACCUGGGCACUUAAAAGAUAUAUGGAGUUAGUAGUGCAACCUGCUCGGUCUGAUGAGUCCCGAAUGGGACGAAACAGC [CGAAUG],1.66 ± 0.019,1.85 ± 0.047
